Values of other authors, collected in patent US9914774B2, “Notch pathway inhibition” (Genentech, Inc., priority 2014, dated 2018).
Where two headings read alike, the source gives them in different places.

Columns and labels:
[1] = Phase 1a, patients with solid tumors
[2] = first-in-human phase I, advanced solid tumors

59R5: anti-Notch antibody 59R5, described in U.S. Pat. No. 7,919,092
patients experienced diarrhea [1]: 58%
patients experiencing grade 3 or higher diarrhea [1]: 14%

B1: 52M51: anti-Notch1 antibody 52M51, described in U.S. Pat. No. 8,435,513 (antibody, chains of the INN, looked up, V domains shown)
VH: QVQLVQSGAEVKKPGASVKISCKVSGYTLRGYWIEWVRQAPGKGLEWIGQILPGTGRTNYNEKFKGRVTMTADTSTDTAYMELSSLRSEDTAVYYCARFDGNYGYYAMDYWGQGTTVTVSS
VL: QAVVTQEPSLTVSPGGTVTLTCRSSTGAVTTSNYANWFQQKPGQAPRTLIGGTNNRAPGVPARFSGSLLGGKAALTLSGAQPEDEAEYYCALWYSNHWVFGGGTKLTVL
patients experienced diarrhea [2]: 64%
